Results published in patent US20050245453A1 (MOUNT SINAI SCHOOL OF MEDICINE OF NEW YORK UNIVERSITY, published 2005).

Biological target: Presenilin-1 (PS1) (human, UniProt P49768 1-467)
Test: co-immunoprecipitation with anti-PS1/NTF R222 from transfected A431D cell extracts, Western blot with C36
Method: Immunoprecipitations (IPs), immunoblotting, immunofluorescence and confocal microscopy. For WB analysis of cell extracts, cells were washed with PBS and then solubilized in RIPA buffer. For IPs cells were solubilized in Hepes buffer (25 mM Hepes [pH 7.4], 150 mM NaCl, 1× Complete protease inhibitor cocktail, Roche) containing 1% digitonin (IPs with I-R222 and PI-R222 antibodies) or 1% Triton X-100 (IPs with β-catenin and desmoglein antibodies). Following centrifugation at 17,000×g for 10 min, supernatants (1 mg protein) were pre-cleared with protein A- or protein G-agarose (Pierce) for 2 hours. Supernatants were then incubated with antibodies overnight at 4° C. and treated for 2 hours with protein A-agarose (polyclonal antibodies) or with protein G-agarose (monoclonal antibodies). IPs were washed with Hepes buffer containing either 1% digitonin or 1% Triton X-100 and analyzed by SDS-PAGE. Immunofluorescence and confocal microscopy was performed as described by Georgakopoulos et al., (1999). Briefly, cells were plated on 22×22 mm collagen-coated glass coverslips, fixed in cold methanol for 10 min at −20° C. […]

binding result: no binding
B1: E-cadherin mutant GGG759-761AAA (receptor)
chain: DWVIPPISCPENEKGPFPKNLVQIKSNKDKEGKVFYSITGQGADTPPVGVFIIERETGWLKVTEPLDRERIATYTLFSHAVSSNGNAVEDPMEILITVTDQNDNKPEFTQEVFKGSVMEGALPGTSVMEVTATDADDDVNTYNAAIAYTILSQDPELPDKNMFTINRNTGVISVVTTGLDRESFPTYTLVVQAADLQGEGLSTTATAVITVTDTNDNPPIFNPTTYKGQVPENEANVVITTLKVTDADAPNTPAWEAVYTILNDDGGQFVVTTNPVNNDGILKTAKGLDFEAKQQYILHVAVTNVVPFEVSLTTSTATVTVDVLDVNEAPIFVPPEKRVEVSEDFGVGQEITSYTAQEPDTFMEQKITYRIWRDTANWLEINPDTGAISTRAELDREDFEHVKNSTYTALIIATDNGSPVATGTGTLLLILSDVNDNAPIPEPRTIFFCERNPKPQVINIIDADLPPNTSPFTAELTHGASANWTIQYNDPTQESIILKPKMALEVGDYKINLKLMDNQNKDQVTTLEVSVCDCEGAAGVCRKAQPVEAGLQIPAILGILGGILALLILILLLLLFLRRRAVVKEPLLPPEDDTRDNVYYYDEEAAAEEDQDFDLSQLHRGLDARPEVTRNDVAPTLMSVPRYLPRPANPDEIGNFIDENLKAADTDPTAPPYDSLLVFDYEGSGSEAASLSSLNSSESDKDQDYDYLNEWGNRFKKLADMYGGGEDD
notes: whole, on cells; Numbering on the unprocessed human E-cadherin precursor; Assayed in cell extracts by co-immunoprecipitation; also called mutant E-cadherin
